In publication PMC11109203 (2024):

B2: FITC labeled Clr3 (enzyme)
chain: MLASNSDGASTSVKPSDDAVNTVTPWSILLTNNKPMSGSENTLNNESHEMSQILKKSGLCYDPRMRFHATLSEVDDHPEDPRRVLRVFEAIKKAGYVSNVPSPSDVFLRIPAREATLEELLQVHSQEMYDRVTNTEKMSHEDLANLEKISDSLYYNNESAFCARLACGSAIETCTAVVTGQVKNAFAVVRPPGHHAEPHKPGGFCLFNNVSVTARSMLQRFPDKIKRVLIVDWDIHHGNGTQMAFYDDPNVLYVSLHRYENGRFYPGTNYGCAENCGEGPGLGRTVNIPWSCAGMGDGDYIYAFQRVVMPVAYEFDPDLVIVSCGFDAAAGDHIGQFLLTPAAYAHMTQMLMGLADGKVFISLEGGYNLDSISTSALAVAQSLLGIPPGRLHTTYACPQAVATINHVTKIQSQYWRCMRPKHFDANPKDAHVDRLHDVIRTYQAKKLFEDWKITNMPILRDSVSNVFNNQVLCSSNFFQKDNLLVIVHESPRVLGNGTSETNVLNLNDSLLVDPVSLYVEWAMQQDWGLIDINIPEVVTDGENAPVDILSEVKELCLYVWDNYVELSISKNIFFIGGGKAVHGLVNLASSRNVSDRVKCMVNFLGTEPLVGLKTASEEDLPTWYYRHSLVFVSSSNECWKKAKRAKRRYGRLMQSEHTETSDMMEQHYRAVTQYLLHLLQKARPTSQ
modifications: FITC label

Tests used:
FITC labeled Clr3 = target: B2; assay: MST
[1] = target: Sad1_(1-169)-H2AB complex (S. pombe, UniProt Q09825 1-169; P04913 32-126; P04909 15-108); assay: MST; mixture of Sad1 and H2AB
Sad1_(1-169)-5R = Sad1_(1-169)-5R (S. pombe, UniProt Q09825 1-169, D114R | E117R | F118R | E121R | E122R); assay: MST; mixture of Sad1-5R and H2AB
H2AB with H2B Y42R = H2AB with H2B Y42R (S. pombe, UniProt P04913 32-126; P04909 15-108, Y42R); assay: ITC
[2] = target: S. pombe H2AB fusion protein (H2B_(32-126)-H2A_(15-108)) (S. pombe, UniProt P04913 32-126; P04909 15-108); assay: ITC
H2AB with H2A R79E = H2AB with H2A R79E (S. pombe, UniProt P04913 32-126; P04909 15-108, R79E); assay: ITC

B1: Sad1_(1-169) (domain or fragment)
chain: MFTNTPVGGKRERQNGAHPAWSTLGANSAQIHQNTADLASKMHKLRYTKIRSPPTRVSIESITPKQRFPAPNFEQAYHSNIRYEQEESDNEEFENVVKNGHEASTNVFYESDGDDEEFVNEEYENSIDEESDDEGYSLNEDTTATNASFRYPMNQRSTRKSQFYSSKFK
Q: Which Kd (FITC labeled Clr3) does the source give for B1 here?
A: Its Kd is 42.9 µM.

Q: How did the Kd [1] turn out when B2 was run?
A: Its Kd is 10.3 µM.

Q: What about the Kd (Sad1_(1-169)-5R) of the same binder?
A: The Kd was 47.2 µM.

B3: Sad1_(60-169) (domain or fragment)
chain: ESITPKQRFPAPNFEQAYHSNIRYEQEESDNEEFENVVKNGHEASTNVFYESDGDDEEFVNEEYENSIDEESDDEGYSLNEDTTATNASFRYPMNQRSTRKSQFYSSKFK
Q: How did the Kd (H2AB with H2B Y42R) turn out when B3 was run?
A: The Kd was 44.8 µM.

Q: What about the Kd [2] of the same binder?
A: Its Kd is 9.1 µM.

Q: And the Kd (H2AB with H2A R79E)?
A: Its Kd is 90.1 µM.

B4: Sad1_(60-169) F118R (domain or fragment)
chain: ESITPKQRFPAPNFEQAYHSNIRYEQEESDNEEFENVVKNGHEASTNVFYESDGDDEERVNEEYENSIDEESDDEGYSLNEDTTATNASFRYPMNQRSTRKSQFYSSKFK
Q: For B4, which Kd [2] is on record?
A: Its Kd is greater than 200 µM.

B5: Sad1_(60-169) with charge-reverse mutations of D114 and E117 (domain or fragment)
chain: ESITPKQRFPAPNFEQAYHSNIRYEQEESDNEEFENVVKNGHEASTNVFYESDGRDERFVNEEYENSIDEESDDEGYSLNEDTTATNASFRYPMNQRSTRKSQFYSSKFK
Q: With B5 as the binder, how does the Kd [2] read?
A: Its Kd is 73.5 µM.
